Test results taken from PMC5404824, “Engineering Nucleotide Specificity of Succinyl-CoA Synthetase in Blastocystis: The Emerging Role of Gatekeeper Residues” (Biochemistry, 2016).

System: Nc1nc2c(ncn2[C@@H]2O[C@H](COP(=O)(O)OP(=O)(O)OP(=O)(O)O)[C@@H](O)[C@H]2O)c(=O)[nH]1
Test: purified protein
Type: biochemical, Blastocystis hominis
Conditions: 129 μM CoA, 10 mM succinate, 50 mM KCl, 10 mM MgCl2, 50 mM Tris-HCl pH 7.4, 30 nM enzyme

Substance | Km [µM] | kcat [s⁻¹] | kcat/Km [M⁻¹ s⁻¹]
Blastocystis SCS (succinyl-CoA synthetase, SCSα + SCSβ) (Blastocystis sp. ATCC 50177/Nand II; K128D/K60E) | 143 ± 17 | 0.0195 ± 0.001 | 136
Blastocystis SCS (succinyl-CoA synthetase, SCSα + SCSβ) (Blastocystis sp. ATCC 50177/Nand II; K128D/K60E/L241F/V127L) | 82 ± 12 | 0.0078 ± 0.0004 | 96
